Values of other authors, collected in patent US20120128767A1, “THERAPEUTIC CALCIUM PHOSPHATE PARTICLES AND METHODS OF MAKING AND USING SAME” (priority 2008, published 2012).
Where two headings read alike, the source gives them in different places.

In the case of insulin, the absorption efficiency (insulin added to preformed calcium phosphate particles) is listed as “about 40%” and the absorption efficiency (insulin mixed during the particle formation) is listed as “about 89%”.
